Source: patent US11034759B2, “Humanized M-CSF specific monoclonal antibodies, kits, and uses thereof” (NOVARTIS VACCINES AND DIAGNOSTICS, INC., priority 2004, dated 2021)

T1: MCSF (Homo sapiens, UniProt P09603)
T1 sequence (P09603 33-255 limits assumed): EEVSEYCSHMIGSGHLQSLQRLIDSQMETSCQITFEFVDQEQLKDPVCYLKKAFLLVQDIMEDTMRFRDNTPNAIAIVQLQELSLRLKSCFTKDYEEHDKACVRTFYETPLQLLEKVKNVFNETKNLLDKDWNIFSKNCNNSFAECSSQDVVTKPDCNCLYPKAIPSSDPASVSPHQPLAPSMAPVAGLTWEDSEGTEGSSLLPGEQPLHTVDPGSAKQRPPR

B1: heRX1-10.G4: Human Engineered RX1 construct 10 with IgG4 constant region; named only in Table 12 (antibody)
heavy: QVQLQESGPGLVKPSQTLSLTCTVSDYSITSDYAWNWIRQFPGKGLEWMGYISYSGSTSYNPSLKSRITISRDTSKNQFSLQLNSVTAADTAVYYCASFDYAHAMDYWGQGTTVTVSS
light: DIVLTQSPAFLSVTPGEKVTFTCQASQSIGTSIHWYQQKTDQAPKLLIKYASESISGIPSRFSGSGSGTDFTLTISSVEAEDAADYYCQQINSWPTTFGGGTKLEIKRT
modifications: left off: a dimerising Fc or GST
B2: 5H4: MCSF-specific murine antibody 5H4 (SEQ ID NOs: 10 and 11) (antibody, listed as Mus musculus)
heavy: EIQLQQSGPELVKTGTSVKISCKASGYSFTGYFMHWVKQSHGKSLEWIGYISCYNGDTNYNQNFKGKATFTVDTSSSTAYMQFNSLTSEDSAVYYCAREGGNYPAYWGQGTLVTVSAAKTTPPSVYPLAPGSAAQTNSMVTLGCLVKGYFPEPVTVTWNSGSLSSGVHTFPAVLQSDLYTLSSSVTVPSSTWPSETVTCNVAHPASSTKVDKKIVPRDCGCKPCICTVPEVSSVFIFPPKPKDVLTITLTPKVTCVVVDISKDDPEVQFSWFVDDVEVHTAQTQPREEQFNSTFRSVSELPIMHQDWLNGKEFKCRVNSAAFPAPIEKTISKTKGRPKAPQVYTIPPPKEQMAKDKVSLTCMITDFFPEDITVEWQWNGQPAENYKNTQPIMDTDGSYFVYSKLNVQKSNWEAGNTFTCSVLHEGLHNHHTEKSLSHSPGK
light: DIVMTQSHKFMSTSVGDRVTITCKASQNVGTAVTWYQQKPGQSPKLLIYWTSTRHAGVPDRFTGSGSGTDFTLTISDVQSEDLADYFCQQYSSYPLTFGAGTKLELKRADAAPTVSIFPPSSEQLTSGGASVVCFLNNFYPKDINVKWKIDGSERQNGVLNSWTDQDSKDSTYSMSSTLTLTKDEYERHNSYTCEATHKTSTSPIVKSFNRNEC

How the values were obtained:
[1] = biological target: T1, MCSF; assay: M-NFS-60 proliferation assay, neutralizing activity (Example 14); type: cell-based; details: Table 12; relative IC50, M-NFS-60 proliferation, 10 ng/ml M-CSF, 72 hours
Source text: To test the neutralizing activity of M-CSF antibodies, a proliferation assay of M-NFS-60 cell line was used (American Type Culture Collection, Accession No. CRL-1838, available from ATCC in Rockville, Md., USA, derived from a myologenous leukemia induced with the Cas-Br.MuLV wild mouse ecotropic retrovirus. The cell line responds to both interleukin 3 and M-CSF and contains a truncated c-myb proto-oncogene caused by the integration of a retrovirus). Proliferation of M-NFS-60 requires active M-CSF in a dose-dependent fashion. In the assay, M-NFS-60 cells were washed and plated in RPIM1640 medium with 10% FBS and 1% Pen/Strep. […] Cells were incubated at 37° C. under 5% CO2 for 72 hours before cell numbers were quantified by CellTiter Glo assay (Promega). […] The IC50 of each antibody was analyzed by curve fit.
The assay was repeated using human MCSF in serum, MDA231 conditioned medium (which contains M-CSF), cynomologous monkey MCSF in serum, and cynomologous monkey recombinant MCSF. The results are presented in FIGS. 25 (recombinant MCSF), 26 (human MCSF in serum) and 27 (MDA231 conditioned medium) as the fluorescent reading from CellTiter Glo assay, which is linear with cell number. […]

[2] = biological target: T1, MCSF; assay: Biacore analysis, antibody captured on anti-mouse Fc chip, MCSF flowed over; type: binding; details: Table 8, 25° C., 1:1 interaction model
Procedure: Binding properties of the aforementioned antibodies were analyzed using Biacore analyses. […] The aforementioned antibodies were then captured on the anti-mouse Fc/CM5 biosensor chip at 1.5 μg/ml for 3 min at 2 μl/min. MCSF was flowed over the modified biosensor surface at varying concentrations (Rmax ˜15). Test antibodies and antigen were diluted in 0.01 M HEPES pH 7.4, 0.15 M NaCL, 3 mM EDTA, 0.005% Surfactant P20 (HBS-EP). All experiments were performed at 25° C. Kinetic and affinity constants were determined using Biaevaluation software (Biacore) with a 1:1 interaction model/global fit.

[3] = biological target: T1, MCSF; assay: Biacore analysis, M-CSF immobilized, intact Mab or Fab flowed over (Example 11); type: binding; details: Table 9, 25° C., 1:1 interaction model
Procedure: Specifically, M-CSF was immobilized onto CMS biosensor chip via amine coupling. 0.05 μg/ml M-CSF in 10 mM Na Acetate pH 4.0 was injected at 1 μl/min for 5 minutes to achieve RL=6-12 RU. Test antibody (or Fab fragment) were flowed over the modified biosensor surface at varying concentrations. Test antibodies were diluted in 0.01 M HEPES pH 7.4, 0.15 M NaCL, 3 mM EDTA, 0.005% Surfactant P20 (HBS-EP) and all experiments were done at 25° C. Kinetic and affinity constants were determined using Biaevaluation software (Biacore) with a 1:1 interaction model/global fit.

[4] = biological target: T1, MCSF; assay: Recognition of M-CSF under reducing and non-reducing conditions; type: binding; details: 0.1 μg M-CSF
Procedure: Accordingly, the anti-M-CSF antibodies were tested against 0.1 μg M-CSF under reducing as well as non-reducing conditions.

| Molecule | IC50 Fold Loss [1] | Ka [2] [M⁻¹ s⁻¹] | Kd [2] [s⁻¹] | Ka [3] [M⁻¹ s⁻¹] | Kd [3] [s⁻¹] | Form of M-CSF recognized [4] |
| --- | --- | --- | --- | --- | --- | --- |
| B1 | No loss |  |  |  |  |  |
| B2 |  | 594000 | 0.00177 | 127000 | 0.00126 | Only the non-reduced form of M-CSF was recognized |
